Laboratory results as given in paper PMC9067401 (Genes & Development, 2022).

B2: Hat2, full-length, yeast (natural protein)
chain: MENQEKPLSVDEEYDLWKSNVPLMYDFVSETRLTWPSLTVQWLPTPVQELDGGFIKQELIIGTHTSGEEENYLKFAEINLPKEILSNEDPQEEAGEEYQSSLPAPRSNIRITAKYEHEEEITRARYMPQDPNIVATINGQGTVFLYSRSEGLQSTLKFHKDNGYALSFSTLVKGRLLSGSDDHTVALWEVGSGGDPTKPVRTWNDLHSDIINDNKWHNFNKDLFGTVSEDSLLKINDVRANNTTIDTVKCPQPFNTLAFSHHSSNLLAAAGMDSYVYLYDLRNMKEPLHHMSGHEDAVNNLEFSTHVDGVVVSSGSDNRLMMWDLKQIGAEQTPDDAEDGVPELIMVHAGHRSSVNDFDLNPQIPWLVASAEEENILQVWKCSHSLPIVGGPPKVNKDIIS

What was measured:
Hat2, full-length, yeast = molecular target: B2; assay: crystal structure
histone H4(7–102), yeast = histone H4(7–102), yeast (yeast, UniProt P02309 8-103); assay: crystal structure

B1: BRIL-fused Hat1ΔC (yeast Hat1 residues 1–320) (enzyme, UniProt Q12341 1-320, looked up)
chain: MSANDFKPETWTSSANEALRVSIVGENAVQFSPLFTYPIYGDSEKIYGYKDLIIHLAFDSVTFKPYVNVKYSAKLGDDNIVDVEKKLLSFLPKDDVIVRDEAKWVDCFAEERKTHNLSDVFEKVSEYSLNGEEFVVYKSSLVDDFARRMHRRVQIFSLLFIEAANYIDETDPSWQIYWLLNKKTKELIGFVTTYKYWHYLGAKSFDEDIDKKFRAKISQFLIFPPYQNKGHGSCLYEAIIQSWLEDKSITEITVEDPNEAFDDLRDRNDIQRLRKLGYDAVFQKHSDLSDEFLESSRKSLKLEERQFNRLVEMLLLLNNS
Hat2, full-length, yeast
  binding result: binds
Histone H4(7–102), yeast
  binding result: binds

## B2
Histone H4(7–102), yeast
  binding result: binds
